Laboratory results: patent US20240350600A1

Target: cell-bound IgE on basophils of peanut-allergic subjects
Test: cell-based or functional assay

B1: Ara h 1 combined epitope peptide (409-427) (peptide)
peptide: NNFGKLFEVKPDKKNPQLQ
With B1 the percentage of activated basophils, one subject was 8%.
